This note sets out measurements from article PMC2647517 (Biochemistry, 2008).

As usually defined, the stoichiometry N is the number of molecules, sites or subunits per partner or assembly.

Where two headings read alike, the source gives them in different places.

Series [1] concerns the molecule itself. Kind of series: SEC. In general terms: SEC sorts molecules by how far they enter the pores of the column.
Series [2] deals with the molecule itself.
Series [3] concerns the molecule itself. Kind of series: cross-linking.
Series [4] deals with the molecule itself. Description: SEC + cross-linking.
Series [5] deals with the molecule itself. Description: SEC + cross-linking. This is another data set of the same source.
Series [6] deals with the molecule itself. Description: SEC. The source holds these as a separate data set.

B1: Escherichia coli manganese superoxide dismutase, wild type (apoprotein) (enzyme, UniProt P00448 1-206, looked up)
chain: MSYTLPSLPYAYDALEPHFDKQTMEIHHTKHHQTYVNNANAALESLPEFANLPVEELITKLDQLPADKKTVLRNNAGGHANHSLFWKGLKKGTTLQGDLKAAIERDFGSVDNFKAEFEKAAASRFGSGWAWLVLKGDKLAVVSTANQDSPLMGEAISGASGFPIMGLDVWEHAYYLKFQNRRPDYIKEFWNVVNWDEAAARFAAKK
On to B1, for which, in series [1], the “stoichiometry N” value turned out to be 2.

B2: EC MnSOD H171A (enzyme, Escherichia coli, UniProt P00448 1-206, looked up)
chain: MSYTLPSLPYAYDALEPHFDKQTMEIHHTKHHQTYVNNANAALESLPEFANLPVEELITKLDQLPADKKTVLRNNAGGHANHSLFWKGLKKGTTLQGDLKAAIERDFGSVDNFKAEFEKAAASRFGSGWAWLVLKGDKLAVVSTANQDSPLMGEAISGASGFPIMGLDVWEAAYYLKFQNRRPDYIKEFWNVVNWDEAAARFAAKK
As for B2, in series [2], the “stoichiometry N” value is 2.

B3: EC MnSOD E170C, disulfide form (enzyme, Escherichia coli, UniProt P00448 1-206, looked up)
chain: MSYTLPSLPYAYDALEPHFDKQTMEIHHTKHHQTYVNNANAALESLPEFANLPVEELITKLDQLPADKKTVLRNNAGGHANHSLFWKGLKKGTTLQGDLKAAIERDFGSVDNFKAEFEKAAASRFGSGWAWLVLKGDKLAVVSTANQDSPLMGEAISGASGFPIMGLDVWCHAYYLKFQNRRPDYIKEFWNVVNWDEAAARFAAKK
modifications: disulfide between Cys170 of the two subunits
On to B3, for which the “stoichiometry N” value in series [3] was determined as 2.

B4: EC MnSOD Y174C, disulfide form (enzyme, Escherichia coli, UniProt P00448 1-206, looked up)
chain: MSYTLPSLPYAYDALEPHFDKQTMEIHHTKHHQTYVNNANAALESLPEFANLPVEELITKLDQLPADKKTVLRNNAGGHANHSLFWKGLKKGTTLQGDLKAAIERDFGSVDNFKAEFEKAAASRFGSGWAWLVLKGDKLAVVSTANQDSPLMGEAISGASGFPIMGLDVWEHAYCLKFQNRRPDYIKEFWNVVNWDEAAARFAAKK
modifications: disulfide between Cys174 of the two subunits
Take B4: the “stoichiometry N” value in series [3] was determined as 2.

B5: EC MnSOD (S126C/Y174C), double disulfide form (enzyme, Escherichia coli, UniProt P00448 1-206, looked up)
chain: MSYTLPSLPYAYDALEPHFDKQTMEIHHTKHHQTYVNNANAALESLPEFANLPVEELITKLDQLPADKKTVLRNNAGGHANHSLFWKGLKKGTTLQGDLKAAIERDFGSVDNFKAEFEKAAASRFGCGWAWLVLKGDKLAVVSTANQDSPLMGEAISGASGFPIMGLDVWEHAYCLKFQNRRPDYIKEFWNVVNWDEAAARFAAKK
modifications: disulfides between Cys126 and Cys126 and between Cys174 and Cys174 of the two subunits
With B5, the “stoichiometry N” value in series [3] was 2.

B6: EC MnSOD S126C, disulfide form (enzyme, Escherichia coli, UniProt P00448 1-206, looked up)
chain: MSYTLPSLPYAYDALEPHFDKQTMEIHHTKHHQTYVNNANAALESLPEFANLPVEELITKLDQLPADKKTVLRNNAGGHANHSLFWKGLKKGTTLQGDLKAAIERDFGSVDNFKAEFEKAAASRFGCGWAWLVLKGDKLAVVSTANQDSPLMGEAISGASGFPIMGLDVWEHAYYLKFQNRRPDYIKEFWNVVNWDEAAARFAAKK
modifications: disulfide between Cys126 of the two subunits
Regarding B6, the “stoichiometry N” value in series [4] and in series [5] was 2 each time.

B7: EC MnSOD S126C, free thiol form (enzyme, Escherichia coli, UniProt P00448 1-206, looked up)
chain: MSYTLPSLPYAYDALEPHFDKQTMEIHHTKHHQTYVNNANAALESLPEFANLPVEELITKLDQLPADKKTVLRNNAGGHANHSLFWKGLKKGTTLQGDLKAAIERDFGSVDNFKAEFEKAAASRFGCGWAWLVLKGDKLAVVSTANQDSPLMGEAISGASGFPIMGLDVWEHAYYLKFQNRRPDYIKEFWNVVNWDEAAARFAAKK
modifications: Cys126 as free thiol (0.99 mol SH/mol protein)
Turning to B7, the “stoichiometry N” value in series [6] is 2.
